What was measured:
[1] = target: prefusion stabilized trimeric SARS-CoV-2 spike protein ectodomain (S-ECD) (SARS-CoV-2) (UniProt P0DTC2); test: ELISA
[2] = target: prefusion stabilized trimeric SARS-CoV-2 spike protein ectodomain (S-ECD) (SARS-CoV-2) (UniProt P0DTC2); test: BLI

## ACE2 monomer, ACE2(1-615)-(GGGGS)5-HRV3C-eGFP-His8 (from UniProt Q9BYF1-1 18-615) (domain or fragment)
[1]
  IC50: 27 nM
[2]
  Kd: 25 nM

Reference: doi:10.1101/2020.08.31.274704
